The record followed here is PMC13544220, “Glycemic and bodyweight effects of GIPR coding variation reflect differences in surface expression and intrinsic functional impairment” (Science Advances, 2026).

For this assay, the system named is wild-type and variant SNAP-GIPR. As to the kind of experiment: Constitutive and agonist-mediated internalization, reversible SNAP-tag labelling, INS-1 cells. It counts as cell-based, human. Also on record: key to Internalisation, GIP-only / Internalisation, Vehicle / Internalisation, +GIP: % internalization: residual fluorescence after Mesna vs pre-Mesna. The note with it: Mean; for +GIP internalisation (100 nM) / GIP-specific internalisation (100 nM) / Constitutive internalisation (100 nM): Fig 4G; for +GIP internalisation (100 nM) / GIP-specific internalisation (100 nM): GIP 100 nM; for Internalisation, +GIP / Internalisation, GIP-only / Internalisation, Vehicle: Fig S4C, INS-1. The procedure, abridged:
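Percentage internalization is read as the fraction of specific SNAP fluorescence that survives Mesna stripping, compared with the image taken before Mesna. Wells are imaged in TNE buffer at pH 8.6 and again after 10 min.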

B1: WT (protein, UniProt P48546 22-466, looked up)
Gastric inhibitory …: RAETGSKGQTAGELYQRWERYRRECQETLAAAEPPSGLACNGSFDMYVCWDYAAPNATARASCPWYLPWHHHVAAGFVLRQCGSDGQWGLWRDHTQCENPEKNEAFLDQRLILERLQVMYTVGYSLSLATLLLALLILSLFRRLHCTRNYIHINLFTSFMLRAAAILSRDRLLPRPGPYLGDQALALWNQALAACRTAQIVTQYCVGANYTWLLVEGVYLHSLLVLVGGSEEGHFRYYLLLGWGAPALFVIPWVIVRYLYENTQCWERNEVKAIWWIIRTPILMTILINFLIFIRILGILLSKLRTRQMRCRDYRLRLARSTLTLVPLLGVHEVVFAPVTEEQARGALRFAKLGFEIFLSSFQGFLVSVLYCFINKEVQSEIRRGWHHCRLRRSLGEEQRQLPERAFRALPSGSGPGEVPTSRGLSSGTLPGPGNEASRELESYC
In the case of B1, the “+GIP internalisation (100 nM)” value is 0.7446; the “GIP-specific internalisation (100 nM)” value stood at 0.2047; the “Constitutive internalisation (100 nM)” value amounted to 0.5399; the “Internalisation, +GIP” value was 51.1244. Moreover, the “Internalisation, GIP-only” value is reported as 14.2697 and the “Internalisation, Vehicle” value is recorded as 36.8547.

B2: E288G (protein)
chain: RAETGSKGQTAGELYQRWERYRRECQETLAAAEPPSGLACNGSFDMYVCWDYAAPNATARASCPWYLPWHHHVAAGFVLRQCGSDGQWGLWRDHTQCENPEKNEAFLDQRLILERLQVMYTVGYSLSLATLLLALLILSLFRRLHCTRNYIHINLFTSFMLRAAAILSRDRLLPRPGPYLGDQALALWNQALAACRTAQIVTQYCVGANYTWLLVEGVYLHSLLVLVGGSEEGHFRYYLLLGWGAPALFVIPWVIVRYLYENTQCWGRNEVKAIWWIIRTPILMTILINFLIFIRILGILLSKLRTRQMRCRDYRLRLARSTLTLVPLLGVHEVVFAPVTEEQARGALRFAKLGFEIFLSSFQGFLVSVLYCFINKEVQSEIRRGWHHCRLRRSLGEEQRQLPERAFRALPSGSGPGEVPTSRGLSSGTLPGPGNEASRELESYC
As to B2, the “+GIP internalisation (100 nM)” value is recorded as 0.1101; the “GIP-specific internalisation (100 nM)” value is on record as 0.004755; the “Constitutive internalisation (100 nM)” value came out at 0.1053; the “Internalisation, +GIP” value was found to be 49.4833. In addition, the “Internalisation, GIP-only” value turned out to be 2.12 and the “Internalisation, Vehicle” value was 47.3633.

B3: R190Q (protein)
chain: RAETGSKGQTAGELYQRWERYRRECQETLAAAEPPSGLACNGSFDMYVCWDYAAPNATARASCPWYLPWHHHVAAGFVLRQCGSDGQWGLWRDHTQCENPEKNEAFLDQRLILERLQVMYTVGYSLSLATLLLALLILSLFRRLHCTRNYIHINLFTSFMLRAAAILSQDRLLPRPGPYLGDQALALWNQALAACRTAQIVTQYCVGANYTWLLVEGVYLHSLLVLVGGSEEGHFRYYLLLGWGAPALFVIPWVIVRYLYENTQCWERNEVKAIWWIIRTPILMTILINFLIFIRILGILLSKLRTRQMRCRDYRLRLARSTLTLVPLLGVHEVVFAPVTEEQARGALRFAKLGFEIFLSSFQGFLVSVLYCFINKEVQSEIRRGWHHCRLRRSLGEEQRQLPERAFRALPSGSGPGEVPTSRGLSSGTLPGPGNEASRELESYC
modifications: left off: SNAP-tag, end not stated, kept
Consider B3, for which the “+GIP internalisation (100 nM)” value was determined as 0.2705; the “GIP-specific internalisation (100 nM)” value was 0.0143; the “Constitutive internalisation (100 nM)” value is 0.2562; the “Internalisation, +GIP” value is listed as 45.6067. Further, the “Internalisation, GIP-only” value is given as 2.692 and the “Internalisation, Vehicle” value is given as 42.915.

B4: R101H (protein)
chain: RAETGSKGQTAGELYQRWERYRRECQETLAAAEPPSGLACNGSFDMYVCWDYAAPNATARASCPWYLPWHHHVAAGFVLHQCGSDGQWGLWRDHTQCENPEKNEAFLDQRLILERLQVMYTVGYSLSLATLLLALLILSLFRRLHCTRNYIHINLFTSFMLRAAAILSRDRLLPRPGPYLGDQALALWNQALAACRTAQIVTQYCVGANYTWLLVEGVYLHSLLVLVGGSEEGHFRYYLLLGWGAPALFVIPWVIVRYLYENTQCWERNEVKAIWWIIRTPILMTILINFLIFIRILGILLSKLRTRQMRCRDYRLRLARSTLTLVPLLGVHEVVFAPVTEEQARGALRFAKLGFEIFLSSFQGFLVSVLYCFINKEVQSEIRRGWHHCRLRRSLGEEQRQLPERAFRALPSGSGPGEVPTSRGLSSGTLPGPGNEASRELESYC
On to B4, for which the “+GIP internalisation (100 nM)” value is listed as 0.1025; the “GIP-specific internalisation (100 nM)” value is -0.004871; the “Constitutive internalisation (100 nM)” value stood at 0.1074; the “Internalisation, +GIP” value was 52.1317. Moreover, the “Internalisation, GIP-only” value is listed as -2.542 and the “Internalisation, Vehicle” value is 54.6733.

B5: E354Q (protein)
chain: RAETGSKGQTAGELYQRWERYRRECQETLAAAEPPSGLACNGSFDMYVCWDYAAPNATARASCPWYLPWHHHVAAGFVLRQCGSDGQWGLWRDHTQCENPEKNEAFLDQRLILERLQVMYTVGYSLSLATLLLALLILSLFRRLHCTRNYIHINLFTSFMLRAAAILSRDRLLPRPGPYLGDQALALWNQALAACRTAQIVTQYCVGANYTWLLVEGVYLHSLLVLVGGSEEGHFRYYLLLGWGAPALFVIPWVIVRYLYENTQCWERNEVKAIWWIIRTPILMTILINFLIFIRILGILLSKLRTRQMRCRDYRLRLARSTLTLVPLLGVHQVVFAPVTEEQARGALRFAKLGFEIFLSSFQGFLVSVLYCFINKEVQSEIRRGWHHCRLRRSLGEEQRQLPERAFRALPSGSGPGEVPTSRGLSSGTLPGPGNEASRELESYC
Take B5: the “+GIP internalisation (100 nM)” value came to 0.4403; the “GIP-specific internalisation (100 nM)” value came to 0.1518; the “Constitutive internalisation (100 nM)” value was determined as 0.2885; the “Internalisation, +GIP” value turned out to be 61.4683. The “Internalisation, GIP-only” value is recorded as 21.0467 and the “Internalisation, Vehicle” value amounted to 40.4217.
